The values that follow come from the DeepSol protein solubility set.

This data set in a line: soluble on expression in E. coli; label from the status in PepcDB or PDB records.
For “SLKPINYVPHFLCRISGEEINSISEIEFIKTLECLELSEGILRKINSLSADLTKDLHDCISLYKEQSISRVLINLKRDIFNMRFNRVQKYKLENISGFNHDKLNLWLNLAQEYQSTLHLMRETFKMEIQEKRGKLKQLFSNSEYIKAIQVSNTQLYENLLEYLQDNQSHPPKKMRNIEQSLINYLSRMIFKPTPFSSFTGLNYGFFSQEDSSFEINTKESKGHTRINMVYLKKIERMLLNRISIKNKCYVSLNQTINEEENYMFFRRGKDGTSQAFTGEAFIKIKKSELLKELIQYFEGISSMNIVEVVSFLSEKTNYETEALYNYLFKLEKMGVLDFSLGVSEQSDNYTKDLIENLLGIKDSLVEKSVSHLVEIEKIQAIFSESNYQKRYVLLKNLQEHIKKIYSLFDLKLESNDLTSLLFEDVSYKNTKIILNENQWKTHLDDFNLIKNLMPLFDDNILEKLSMNIIFKDIYGNKGAIDLLEFYREFNKYDKNLLWKKIRKNDTYLYLKKLRTEFYDYLETQINMGLDTIFLNKSWLKKFINKFPDLLKSKENYSFYFQIAYDNQDNRILVLNKIGPGLGKHFSRYGNLFLNSEYKENNRFINSLIEQYKKYDQNGGVLTDLNAVLGLNLNMHPNLLNYEITYPGCNPSKGINQVALKDIEVLYDSNSDQLKLYSKQYRQNVKLLPLGFLFPALSPSLYKFLCGFSESNGIEYSFWNKFLNEHNNNFSLLPRIMLGSVALDRRTWKINAKEIQKEFSKDTFETFINFHKWVKENQLPEDIFLRVANTMDAFSENELLNQDLGSWIAEIKQTKHRKPQYVNFNNYFHIDALRKIIKDVNNTVTIQEVYPHPDDVYYQKNSKKCVEFLVEVF”, the “soluble on expression in E. coli” value is “soluble”.

“MGSDKIHHHHHHMLTGQRRRESRSRQGSGFPTISYPRIRDGANRPRTRMSPLPEAVPFFSQWETPDMTLAVLADGAEVALRRDLLWQGSGAESLDEYAVWAANICGMACLKMILATRGEIVPTIELARRCTRYGGYVVNEGSIKGLIYAPFVSFVQAEFSLEAQVMTNVATSDIPAILRQSRFFIASVSSSIRWPEGEPPSKGGHLVLVTAASDDGFRFHNPSGHTSVTQANAVLAPADFDRFFANRGIAITI”: the “soluble on expression in E. coli” value is given as “not soluble”. For “MPTPLTHWSRWMQTASRFVDEYPNFSVLPPPPLRAPPPHSKISDRRSV” the value was “not soluble”; for “MGHHHHHHSHVFKIEDKIGEGTFSSVYLATAQLQVGPEEKIALKHLIPTSHPIRIAAELQCLTVAGGQDNVMGVKYCFRKNDHVVIAMPYLEHESFLDILNSLSFQEVREYMLNLFKALKRIHQFGIVHRDVKPSNFLYNRRLKKYALVDFGLAQGTHDTKIELLKFVQSEAQQERCSQNKSHIITGNKIPLSGPVPKELDQQSTTKASVKRPYTNAQIQIKQGKDGKEGSVGLSVQRSVFGERNFNIHSSISHESPAVKLMKQSKTVDVLSRKLATKKKAISTKVMNSAVMRKTASSCPASLTCDCYATDKVCSICLSRRQQVAPRAGTPGFRAPEVLTKCPNQTTAIDMWSAGVIFLSLLSGRYPFYKASDDLTALAQIMTIRGSRETIQAAKTFGKSILCSKEVPAQDLRKLCERLRGMDSSTPKLTSDIQGHASHQPAISEKTDHKASC”, “soluble”. For “MSLAEPIESGKQYVELTSAVPVAVPGKIEVIELFWYGCPHCYAFEPTINPWVEKLPSDVNFVRIPAMFGGPWDAHGQLFITLDTMGVEHKVHAAVFEAIQKGGKRLTDKNDMADFVATQGVNKDDFLKTFDSFAVKGKIAQYKELAKKYEVTGVPTMIVNGKYRFDLGSAGGPEKTLQVADQLIDKERAAAKAEGHHHHHH” the value was “soluble”.

With “MRTIERTTIFKRDFKREMKGQHRHLLDTDLRKVIAALANDQPLEIRYRDHALTGNWSNYRDCHIRPDLVLIYRLIGQDRLVLVRLGSHSQLDL”, the “soluble on expression in E. coli” value is given as “not soluble”. The same measure for “MALLQISEPGLTAAPHQRRLAAGIDLGTTNSLVATVRSGKAQTLADEQLADEQLIADEQLIAGEQLIAGQQLIAGQQLINEKQRDLLPSVVHYHPQGIDVGWKARNLAALDPVNTISSVKRMMGRSLADIVQRYPNLPYQFHASENGLPMIQTARGLVNPVQVSAEILKTLAQRAQAALAGELDGVVITVPAYFDDAQRQGTKDAARLAGLHVLRLLNEPTAAAIAYGLDSGQEGVIAVYDLGGGTFDISILRLSRGVFEVLATGGDSALGGDDFDHLLADWLREQAGVATRDDHGIQRQLLDTAIAAKIALSEAETAVVSVAGWQGEVTREQLESLIAPQVKRTLMACRRALKDAGVTADEILEVVMVGGSTRVPLVREQVGQFFGRTPLTSIDPDKVVAIGAAIQADILVGNKPDSDMLLLDVIPLSLGLETMGGLVEKVIPRNTTIPAARAQEFTTFKDGQSAMMIHVLQGERELVKDCRSLARFTLRGLPPLPAGGAHIRVTFQVDADGLLSVTAMEKSTGVEASIQVKPSYGLSDDEIANMIKDSMANAQSDITARKLAEQRVDAARVLESLQGALAEDAALLSEQESAAIAQAVALLQQQMQGSDPQAIEAAIKALDAQTQDFAARRMDASIRRALAGHSVDEV”: “soluble”; for “MGSDKIHHHHHHMQLLGPTSNTFISQRLRLHYVDWGNADKPPLLLVHGGRDHCRSWDWTAEALREDWHIIALDHRGHGDSQWTQDGNYRTMDLVYDVAQLIHQLDLAPVTIVSHSWGANTSLRYAGLFPENVRKIVAIEGLFPTPEREALMKDVPFARRVREFIVEKRKAAGRLPRRYATLEDAYARMKGENPYLTDAQARHLTLHGINRNEDGTFSWKFDPHLNVDGAPYDISTDQRNELWGAITCPTLLLNGADSWAGNPDRNGMAQHFRNAQVVEFENAGHWLHHDQFDRFIATLRDFL”: “not soluble”; for “MACLCLANISWATVCANSTGVAEDEHYDLSNVFNSTNNQPGQIVVLPEKSGWVGVSAICPPGTLVNYTYRSYVTNFIVQETIDNYKYMQLNDYLLGAMSLVDSVMDIQFPPQNYIRMGTDPNVSQNLPFGVMDSRLIFRLKVIRPFINMVEIPRQVMFTVYVTSTPYDPLVTPVYTISFGGRVEVPQNCELNAGQIVEFDFGDIGASLFSAAGPGNRPAGVMPQTKSIAVKCTNVAAQAYLTMRLEASAVSGQAMVSDNQDLGFIVADQNDTPITPNDLNSVIPFRLDAAAAANVTLRAWPISITGQKPTEGPFSALGYLRVDYQ”: “not soluble”. For “MEYRLKAYYREGEKPSALRRAGKLPGLMYNRHLNRKVYVDLVEFDKVFRQASIHHVIVLELPDGQSLPTLVRQVNLDKRRRRPEHVDFFVLSDEPVEMYVPLRFVGTPAGVRAGGVLQEIHRDILVKVSPRNIPEFIEVDVSGLEIGDSLHASDLKLPPGVELAVSPEETIAAVVPPEDVEKLAEEAAAEVAEPEVIKKGKEEEEE” the value was “soluble”; for “MFKSQTAILPEAGPFALYTLLKVRQNHAHVLQALKALPALVEEINQNQPGAELTVSVAFSKGFWSHFEMASPPELIDFPELGEGETHAPSTDVDVLIHCHATRHDLLFYTLRKGISDIAQDIEIVDETYGFRYLDARDMTGFIDGTENPKAEKRAEVALVADGDFAGGSYVMVQRFVHNLPAWNRLNLAAQEKVIGRTKPDSVELENVPAASHVGRVDIKEEGKGLKIVRHSLPYGSVSGDHGLLFIAYCHTLHNFKTMLESMYGVTDGKTDQLLRFTKAVTGAYFFAPSQVMLQELTLKNQ”, “not soluble”; for “SNAKIGVLQFVSHPSLDLIYKGIQDGLAEEGYKDDQVKIDFMNSEGDQSKVATMSKQLVANGNDLVVGIATPAAQGLASATKDLPVIMAAITDPIGANLVKDLKKPGGNVTGVSDHNPAQQQVELIKALTPNVKTIGALYSSSEDNSKTQVEEFKAYAEKAGLTVETFAVPSTNEIASTVTVMTSKVDAIWVPIDNTIASGFPTVVSSNQSSKKPIYPSATAMVEVGGLASVVIDQHDLGVATGKMIVQVLKGAKPADTPVNVFSTGKSVINKKIAQELGITIPESVLKEAGQVI”, “soluble”.

“MHHHHHHSSGVDLGTENLYFQSMGAASLDVIQEVEYVKEEAKMVYLLECLQKTPPPVLIFAEKKADVDAIHEYLLLKGVEAVAIHGGKDQEERTKAIEAFREGKKDVLVATDVASKGLDFPAIQHVINYDMPEEIENYVHRIGRTGCSGNTGIATTFINKACDESVLMDLKALLLEAKQKVPPVLQVLHCG”: the “soluble on expression in E. coli” value is on record as “soluble”. For “MLEDLIGKAYLESAEDRRRGDRSEEVEAIRKYIRSARRTVVPNWNAEKVDAINDVLRSFNLREAEHLQFNTNWADLTRMPAVTKALMALDISGADLVIARGRLGVPGSGSLLVIMDSRGRLLSAAMSPPHVIHSMEVREAVRSEMTHALERIGFKR” the value was “soluble”; for “MRIAIIGSGCSGLTAIKNLLDAGLKEIICFEKSDQIGGNWVYTAAPSHSSVSEATHIISSKALSQFSDFPMPDDYPDYPSHQQILAYFQAYTRHFHLDHYIRFNTAVLRAEKIEKERWCLHLDDGTQAEFDYLLVANGHHSVPRHPDWKECFTGKYLHAHEYKTNQGLEGKRILVVGAGNSGCDCAVEASRVAARVDISLRSPQYIIPKFIMGRPTDTFAATFHWLPQSVQDGLQRISLRLQIGRYHDYALPEPDFSPTRAHPTINSALFDKIRHGKVHPRPGIQKVSGQTVYFADNATAQYDVLIAATGYKISFPFFDRDFLDWEEAAHIPLFLRIFHPDHPSLFFVGLIQPQGCIWPLAEIQARLIGQLLTNKIQLPLNWRKLALSEGRNRAQQFIARPRHSIEVHYYPYLKQLQRMIQGQIKLEHHHHHH”, “soluble”. For the sequence “MSLEENDDDMVGMVDLKIDLERVVRNAVDDAKEVCTQHYGDCPDVKFIISKDANTMRFPHMSSTITYIVVELMKNAFRATVESHMERNSAGMVDCSNMPPVEVLVNIKKNAKHACICVSDEGLGMTRAQCELAMTYAYTTVKRPVIQHGADEDPEEERNGVSPLAGYGFGLPMSRVYAQAFGGDLVMSTMEGYGTRVYYYIKEGHHHHHH”, the “soluble on expression in E. coli” value is “soluble”. For “TDKTFFDAKMEEQAKRHAQHNNTESNLEPDIKNAPGGIRDMNQIGWIAKRHFRVNRIYDLVHLGFITEYELKVLEEAESFLWEIRHHLHLLSKRDENRLLFDHQREIAAKFGYTRAEGQPVNFAVEQFMKRYYRTAQQVSTLNEMLLAYFNESVITPRLPNYERKIEEINENFKLVDGKLAVQHHKVFSENPSAILELFYLLANHPEIEGIRARTLRLLIMAAKRID” the value was “not soluble”. “SNAMSVQLVKGVNLHVIPTEKYKTVRLLVRFNTRLNHETITKRTLLSSLMETNSLNYPNQVKLSERLAELYGASFGIGVSKKGNQHWFNISMNIVNDHYLQDSQVLAEAVDFLKEIIFAPNIQAGQFEAETFQREKENLKAYLESIVEDKQTYASLALQSVYFNQSEDQKIPSFGTVAALAEETAASLAAYYQKMLAEDQVDIFVLGDVNEAELVPLFKQLPFTPREEGKAAIFYNQPIRNVIEERTEREVLAQSKLNLAYNTDIYYGDSYYFALQVFNGIFGGFPHSKLFMNVREKEHLAYYASSSIDTFRGFMTVQTGIDGKNRNQVLRLISTELENIRLGKIRELEIEQTKAMLKNQYILALDNAGAWLEKEYLNELMPQTMLTAEEWIARINAVTIPEIQEVAKRLELQAIFFLEGETEND”: the “soluble on expression in E. coli” value is listed as “soluble”.

In the case of “MYKPITFSLKYIFKTAGKVEVQGREKLPEGGPYVVACTHTSFMDVLMLATGMYPTEIHYMAKKELFEGKFKNWFFKNVNAFPVDRANPGPSTLKIPSRLLKEGKVVGIFPSGTRSTEDVSLKAGAVTIAMRSNVPLIPAAYIGPSSVKELIKGKRAQLIFGDPIQIDAEEQIDRKTAMKMMTDQLNEKFEGLKEALQSNQK”, the “soluble on expression in E. coli” value is on record as “not soluble”.
